Tests used:
[1] = target: Jak2 (UniProt O60674); assay: phosphorylation enrichment, bacterial display (enrichment ratio); higher = better substrate or ligand; peptides without Tyr show the background
[2] = target: EPHB1 (UniProt P54762); assay: as above
[3] = target: Fes (UniProt P07332); assay: as above
[4] = target: Hck (UniProt P08631); assay: as above
[5] = system: AncSZ; assay: as above
[6] = target: Fyn (UniProt P06241); assay: as above
[7] = system: Fer (mouse); assay: as above
[8] = target: FGFR1 (UniProt P11362); assay: as above
[9] = system: c-Abl (mouse); assay: as above
[10] = system: c-Src; assay: as above
[11] = target: FGFR3 (UniProt P22607); assay: as above
Chain of FGFR3 (P22607 whole entry, looked up): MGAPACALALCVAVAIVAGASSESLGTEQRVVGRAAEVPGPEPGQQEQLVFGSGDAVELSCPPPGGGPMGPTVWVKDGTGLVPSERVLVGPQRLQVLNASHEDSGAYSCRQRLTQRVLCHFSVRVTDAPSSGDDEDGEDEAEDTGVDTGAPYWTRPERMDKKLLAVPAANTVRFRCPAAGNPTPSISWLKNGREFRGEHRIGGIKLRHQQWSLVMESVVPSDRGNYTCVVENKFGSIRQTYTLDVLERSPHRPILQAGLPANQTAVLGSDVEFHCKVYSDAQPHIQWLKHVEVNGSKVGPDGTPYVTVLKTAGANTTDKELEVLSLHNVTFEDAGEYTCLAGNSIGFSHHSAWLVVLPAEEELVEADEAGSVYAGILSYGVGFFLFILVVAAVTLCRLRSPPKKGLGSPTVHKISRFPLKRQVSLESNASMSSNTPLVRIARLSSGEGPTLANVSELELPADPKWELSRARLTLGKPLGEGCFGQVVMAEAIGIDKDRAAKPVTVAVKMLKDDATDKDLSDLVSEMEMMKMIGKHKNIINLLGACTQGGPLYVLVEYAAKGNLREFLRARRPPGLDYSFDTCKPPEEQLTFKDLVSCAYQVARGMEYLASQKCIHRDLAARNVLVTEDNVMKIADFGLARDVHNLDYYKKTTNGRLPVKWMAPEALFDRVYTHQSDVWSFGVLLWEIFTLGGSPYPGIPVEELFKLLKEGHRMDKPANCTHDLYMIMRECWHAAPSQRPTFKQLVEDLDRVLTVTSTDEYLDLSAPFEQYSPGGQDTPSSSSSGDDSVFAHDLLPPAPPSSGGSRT

[12] = target: EPHB2 (UniProt P29323); assay: as above
Chain of EPHB2 (P29323 whole entry, looked up): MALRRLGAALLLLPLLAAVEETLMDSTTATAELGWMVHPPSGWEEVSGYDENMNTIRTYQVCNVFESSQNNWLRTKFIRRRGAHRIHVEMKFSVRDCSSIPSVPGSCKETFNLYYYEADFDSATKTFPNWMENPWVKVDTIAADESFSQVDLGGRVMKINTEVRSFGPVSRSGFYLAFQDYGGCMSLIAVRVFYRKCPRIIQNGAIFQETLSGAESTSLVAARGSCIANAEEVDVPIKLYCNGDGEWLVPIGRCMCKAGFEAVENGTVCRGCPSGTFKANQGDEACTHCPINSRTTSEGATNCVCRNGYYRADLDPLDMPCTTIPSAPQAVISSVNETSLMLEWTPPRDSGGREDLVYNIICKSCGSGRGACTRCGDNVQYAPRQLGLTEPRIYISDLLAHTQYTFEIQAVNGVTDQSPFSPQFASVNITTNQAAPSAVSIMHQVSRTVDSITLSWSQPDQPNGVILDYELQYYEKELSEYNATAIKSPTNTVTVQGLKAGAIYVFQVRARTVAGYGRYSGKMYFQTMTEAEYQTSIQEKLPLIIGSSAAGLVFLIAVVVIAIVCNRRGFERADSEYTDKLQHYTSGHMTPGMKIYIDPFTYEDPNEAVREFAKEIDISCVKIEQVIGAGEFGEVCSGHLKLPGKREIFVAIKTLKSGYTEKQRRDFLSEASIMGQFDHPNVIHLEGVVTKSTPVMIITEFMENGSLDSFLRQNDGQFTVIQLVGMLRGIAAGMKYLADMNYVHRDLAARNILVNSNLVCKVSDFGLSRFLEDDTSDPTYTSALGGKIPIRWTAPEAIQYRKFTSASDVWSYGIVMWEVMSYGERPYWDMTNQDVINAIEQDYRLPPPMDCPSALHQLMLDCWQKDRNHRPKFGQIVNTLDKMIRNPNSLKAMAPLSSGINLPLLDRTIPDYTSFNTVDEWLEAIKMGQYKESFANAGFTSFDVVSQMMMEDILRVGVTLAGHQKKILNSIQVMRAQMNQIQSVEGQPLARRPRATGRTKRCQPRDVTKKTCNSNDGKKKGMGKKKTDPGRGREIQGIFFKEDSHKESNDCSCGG

[13] = target: MERTK (UniProt Q12866); assay: as above
Chain of MERTK (Q12866 whole entry, looked up): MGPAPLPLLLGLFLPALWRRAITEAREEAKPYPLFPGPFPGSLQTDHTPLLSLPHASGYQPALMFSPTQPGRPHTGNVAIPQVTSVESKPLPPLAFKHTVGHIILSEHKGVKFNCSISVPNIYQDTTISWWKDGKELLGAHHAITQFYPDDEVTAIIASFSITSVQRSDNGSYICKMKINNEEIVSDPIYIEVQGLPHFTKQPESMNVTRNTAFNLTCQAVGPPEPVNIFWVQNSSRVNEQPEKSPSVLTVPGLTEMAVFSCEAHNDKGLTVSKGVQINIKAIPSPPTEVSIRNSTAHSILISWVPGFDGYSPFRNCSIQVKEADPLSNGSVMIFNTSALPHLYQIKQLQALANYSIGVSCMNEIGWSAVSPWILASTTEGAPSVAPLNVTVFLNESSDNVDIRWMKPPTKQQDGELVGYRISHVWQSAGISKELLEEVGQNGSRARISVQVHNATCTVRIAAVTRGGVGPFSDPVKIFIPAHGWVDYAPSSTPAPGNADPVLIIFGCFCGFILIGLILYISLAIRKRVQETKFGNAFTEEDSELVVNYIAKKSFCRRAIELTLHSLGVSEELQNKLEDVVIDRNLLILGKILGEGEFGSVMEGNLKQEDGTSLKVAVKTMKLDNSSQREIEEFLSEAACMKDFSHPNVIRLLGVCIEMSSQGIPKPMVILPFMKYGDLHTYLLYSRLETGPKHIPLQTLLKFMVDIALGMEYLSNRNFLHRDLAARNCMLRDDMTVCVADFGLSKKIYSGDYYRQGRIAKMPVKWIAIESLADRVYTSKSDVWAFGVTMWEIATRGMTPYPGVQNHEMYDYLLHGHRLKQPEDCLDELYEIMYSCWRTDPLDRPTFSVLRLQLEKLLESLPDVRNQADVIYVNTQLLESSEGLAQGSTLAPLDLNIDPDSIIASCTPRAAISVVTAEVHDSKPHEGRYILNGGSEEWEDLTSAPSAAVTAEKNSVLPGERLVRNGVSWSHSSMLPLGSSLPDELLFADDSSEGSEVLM

[14] = target: SHP2-C SH2; assay: SH2 binding enrichment of the phosphorylated peptide, bacterial display (enrichment ratio); higher = better substrate or ligand; peptides without Tyr show the background
[15] = target: c-Src SH2; assay: as above
[16] = target: Grb2 SH2 (UniProt P62993); assay: as above
Chain of Grb2 SH2 (P62993 whole entry, looked up, the tested form may be a part): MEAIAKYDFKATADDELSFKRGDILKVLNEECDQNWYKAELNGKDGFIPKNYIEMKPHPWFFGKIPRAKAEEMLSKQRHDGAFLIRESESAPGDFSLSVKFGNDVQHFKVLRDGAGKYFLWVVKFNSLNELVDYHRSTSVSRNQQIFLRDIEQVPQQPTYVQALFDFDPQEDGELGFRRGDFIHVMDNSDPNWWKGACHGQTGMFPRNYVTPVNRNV
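Wherever SH2 binding enrichment of the phosphorylated peptide, bacterial display is given: peptide library displayed on the E. coli surface as eCPX fusions, selected cells deep-sequenced, score is each peptide's frequency after selection divided by its frequency in the input.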
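Wherever phosphorylation enrichment, bacterial display is given: 11-residue human phosphosite peptides and single-mutation variants displayed on the E. coli surface, counted by deep sequencing, each peptide's frequency after selection divided by its frequency in the unselected input library; frequency after pTyr selection over input frequency; kinase dosed for 20-30% of maximal phosphorylation in three min.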

Chain of Fes (P07332 whole entry, looked up): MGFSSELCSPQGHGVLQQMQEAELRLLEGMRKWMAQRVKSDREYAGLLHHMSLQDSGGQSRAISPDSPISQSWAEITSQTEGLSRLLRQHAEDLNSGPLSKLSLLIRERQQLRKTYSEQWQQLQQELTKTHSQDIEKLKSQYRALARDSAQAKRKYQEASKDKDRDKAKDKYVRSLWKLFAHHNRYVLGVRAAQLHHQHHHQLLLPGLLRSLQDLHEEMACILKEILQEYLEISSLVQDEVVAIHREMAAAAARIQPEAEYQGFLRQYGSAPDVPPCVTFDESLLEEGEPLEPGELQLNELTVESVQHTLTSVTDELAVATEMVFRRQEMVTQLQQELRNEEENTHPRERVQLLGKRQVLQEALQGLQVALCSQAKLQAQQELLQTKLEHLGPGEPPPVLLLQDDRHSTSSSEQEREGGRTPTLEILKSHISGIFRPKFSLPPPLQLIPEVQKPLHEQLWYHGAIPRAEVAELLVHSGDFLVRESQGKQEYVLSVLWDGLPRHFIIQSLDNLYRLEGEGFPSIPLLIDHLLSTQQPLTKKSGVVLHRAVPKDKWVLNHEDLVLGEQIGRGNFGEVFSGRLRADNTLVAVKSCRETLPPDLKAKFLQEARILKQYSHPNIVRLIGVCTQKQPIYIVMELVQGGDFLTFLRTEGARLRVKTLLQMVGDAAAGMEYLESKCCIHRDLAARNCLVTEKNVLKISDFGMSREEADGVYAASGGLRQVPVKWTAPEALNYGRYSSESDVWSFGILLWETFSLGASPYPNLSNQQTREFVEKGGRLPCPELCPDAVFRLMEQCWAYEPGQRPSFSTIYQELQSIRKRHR
Chain of EPHB1 (P54762 whole entry, looked up): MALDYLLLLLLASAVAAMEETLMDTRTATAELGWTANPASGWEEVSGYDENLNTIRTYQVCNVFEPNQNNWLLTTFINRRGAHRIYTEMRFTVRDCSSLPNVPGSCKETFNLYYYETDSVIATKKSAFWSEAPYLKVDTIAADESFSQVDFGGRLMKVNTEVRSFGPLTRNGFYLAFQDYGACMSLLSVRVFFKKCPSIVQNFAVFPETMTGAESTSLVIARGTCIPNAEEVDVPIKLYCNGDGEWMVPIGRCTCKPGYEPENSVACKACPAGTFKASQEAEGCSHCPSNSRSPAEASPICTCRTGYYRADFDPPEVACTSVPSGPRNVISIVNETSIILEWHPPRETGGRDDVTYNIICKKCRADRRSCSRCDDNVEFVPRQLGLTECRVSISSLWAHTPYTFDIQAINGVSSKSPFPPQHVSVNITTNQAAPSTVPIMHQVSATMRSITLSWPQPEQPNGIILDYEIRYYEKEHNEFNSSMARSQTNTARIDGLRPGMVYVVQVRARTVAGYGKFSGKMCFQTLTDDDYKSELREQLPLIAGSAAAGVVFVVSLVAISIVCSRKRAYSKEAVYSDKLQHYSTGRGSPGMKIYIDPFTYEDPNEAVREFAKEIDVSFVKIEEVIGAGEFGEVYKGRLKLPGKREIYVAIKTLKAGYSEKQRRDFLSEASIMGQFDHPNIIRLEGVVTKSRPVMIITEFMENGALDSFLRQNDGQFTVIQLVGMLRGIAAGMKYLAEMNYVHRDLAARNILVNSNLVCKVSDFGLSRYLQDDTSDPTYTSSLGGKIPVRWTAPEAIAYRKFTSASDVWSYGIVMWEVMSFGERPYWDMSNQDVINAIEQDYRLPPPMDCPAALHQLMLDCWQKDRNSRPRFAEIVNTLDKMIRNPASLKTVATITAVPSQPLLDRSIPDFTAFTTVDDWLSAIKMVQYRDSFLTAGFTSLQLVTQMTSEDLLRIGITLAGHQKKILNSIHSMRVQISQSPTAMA

Sequence	phosphorylation enrichment [1]	phosphorylation enrichment [2]	phosphorylation enrichment [3]	phosphorylation enrichment [4]	phosphorylation enrichment [5]	phosphorylation enrichment [6]	phosphorylation enrichment [7]	phosphorylation enrichment [8]	phosphorylation enrichment [9]	phosphorylation enrichment [10]	phosphorylation enrichment [11]	phosphorylation enrichment [12]	phosphorylation enrichment [13]	SH2 binding enrichment [14]	SH2 binding enrichment [15]	SH2 binding enrichment [16]
IPQEEYTATGL	0.955	0.622	1.39	0.461	1.16	0.437	0.562	0.506	0.924	0.56	0.653	0.512	0.378	0.79	0.441	0.799
IQKKFYRAILE [CHD7_Y1218_YF]	0.636	0.396	0.727	0.332	0.523	0.344	0.398	0.37	0.51	0.414	0.46	0.275	0.409	0.699	0.685	0.769
IRGNMYFENSF [EGFR_Y112_YF]	0.841	0.581	1.07	0.457	0.879	0.438	0.527	0.514	0.583	0.395	0.713	0.547	0.536	1.05	0.606	0.895
IRKVLYANNVM [ACTA1_Y296_D294V]	0.637	0.311	0.599	0.297	0.569	0.286	0.337	0.567	0.529	0.325	0.395	0.368	0.328	0.944	0.82	1.44
IRTIDYRYTVC [IDS_Y497_W502C]	0.965	0.653	1.02	0.561	0.965	0.51	0.572	0.555	0.65	0.461	0.754	0.52	0.478	0.948	2.77	0.884
ISDDKYGRIRL [ARCN1_Y310]	0.419	0.357	0.501	0.454	0.484	0.434	0.312	0.407	0.433	0.56	0.357	1.04	0.325	0.639	0.434	0.806
ISDNAYQFMLT [MYH7_Y162_YF]	0.957	0.662	1.19	0.684	1.22	0.654	5.75	1.83	1.09	0.807	1.51	0.526	0.883	0.841	0.735	0.762
ISIFHCAKGQP [MPZ_Y82_Y82C]	1.41	0.773	1.7	0.608	1.33	0.602	0.643	0.729	0.954	0.609	1.02	0.845	0.62	0.521	0.524	1.04
ISRASYYRKGG [ALK_Y1282_Y1278S]	0.51	0.427	0.701	0.496	0.588	0.511	0.473	0.409	0.569	0.509	0.532	0.428	0.576	0.426	0.362	0.655
ISRLKYPVSQQ [BTK_Y375]	0.534	0.331	0.59	0.352	0.419	0.355	0.318	0.317	0.486	0.342	0.399	0.383	0.313	1.04	0.831	0.938
ISSLDYISKSK [VAV3_Y294_T298S]	0.743	0.38	0.688	0.443	0.648	0.431	0.443	0.458	0.81	0.478	0.587	0.467	0.482	0.629	0.365	0.781
ITGNGYYFRVF [MYBPC3_Y1135_I1131T]	0.936	0.561	1.08	0.385	1.04	0.384	0.488	0.41	0.701	0.301	0.72	0.589	0.294	0.799	0.475	0.665
ITNHIYTWVDP [DFNB31_Y234_V229I]	1.06	2.92	1.97	2.66	2.4	4.11	9.75	3.64	0.832	4.2	2.95	1.62	8.78	0.791	0.99	1.05
ITNLLYHLVGW [GBA_Y412_V414L]	1.47	2.74	0.866	4.8	1.09	2.56	3.17	6.54	0.703	2.99	5.47	1.04	8.16	1.84	1.49	1.72
KAFDMYSGDVM [FAM3D_Y122]	0.653	1.18	0.732	1.23	0.832	0.846	0.423	0.593	0.508	0.935	0.569	1.15	0.876	0.559	0.462	0.829
KDHPDYKYPPR [SOX10_Y171_Q174P]	0.462	0.355	0.601	0.381	0.612	0.438	0.345	0.549	0.515	0.4	0.522	0.392	0.331	0.961	0.637	1.08
KDHPDYKYQRR [SOX10_Y171_P175R]	0.519	0.33	0.574	0.367	0.483	0.283	0.303	0.402	0.516	0.319	0.369	0.3	0.349	1.17	0.829	1.03

Reference: the supplement of paper PMC10065799, “High-throughput profiling of sequence recognition by tyrosine kinases and SH2 domains using bacterial peptide display” (eLife, 2023)
